This is an account of results in US12221488B2, “APJ antibody, fusion protein thereof with Elabela, and pharmaceutical compositions and use thereofus01” (GMAX BIOPHARM LLC, priority 2018, dated 2025).

In assay [1] the target is T1, hAPJ (Homo sapiens, UniProt P35414).
T1 construct: expressed in transfected cells; host or cells: CHO-DHFR- cells expressing hAPJ and a CRE-luciferase reporter
T1 sequence (P35414 1-380): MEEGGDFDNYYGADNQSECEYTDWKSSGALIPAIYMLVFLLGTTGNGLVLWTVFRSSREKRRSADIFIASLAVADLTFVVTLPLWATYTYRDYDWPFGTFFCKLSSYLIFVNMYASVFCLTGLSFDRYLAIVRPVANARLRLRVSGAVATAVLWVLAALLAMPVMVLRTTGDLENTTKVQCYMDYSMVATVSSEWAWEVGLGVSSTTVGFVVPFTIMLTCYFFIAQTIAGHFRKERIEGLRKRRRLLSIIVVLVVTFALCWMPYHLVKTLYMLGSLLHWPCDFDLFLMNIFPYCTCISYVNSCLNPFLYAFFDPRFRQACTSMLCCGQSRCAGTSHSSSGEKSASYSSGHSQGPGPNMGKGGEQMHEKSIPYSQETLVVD
The assay can be described thus: Reporter gene assay (hAPJ-CRE-Luciferase CHO-DHFR- cells) of in vitro activation of Elabela/APJ signaling pathway. Format: cell-based. Particulars: for EC50: 0.6 μM forskolin, 6 hours at 37° C., Bright Glo readout; for blocking or activation of APJ receptor by the antibody: reporter gene assay. As to the method: 35000 hAPJ-CRE-Luciferase expressing CHO-DHFR-cells per well were seeded into 96 well plate, and cultured overnight at 37° C. The culture supernatant was removed the second day, cells were washed twice with serum-free medium, and the residue liquid was aspirated. 50 μL of 0.6 μM forskolin was added in 96 well plate in advance, then 50 μL of Elabela fusion protein or Elabela-11 polypeptide diluted in serum-free medium was added, and incubated at 37° C. for 6 hours. After stimulation, 100 μL Bright Glo chemical luminescence substrate (Promega) was added, then the cell lysate was transferred to white 96 well plate, and the relative intensity of […] was read in the SpectraMax L (Molecular Devices). The data were fitted with prism5.0 and EC50 was calculated.
Background: A reporter such as luciferase makes a cellular process visible.

For assay [2], the target named is T1, hAPJ. The assay can be described thus: FACS analysis of binding of APJ antibodies to CHO-DHFR-hAPJ cells. The following applies: mouse ascites antibody at 500 nM and 4 nM on CHO-DHFR-hAPJ; negative control 500 nM on blank CHO-DHFR- cells. The protocol:
PBS containing EDTA was used to detach and collect 10^5 CHO-DHFR-hAPJ cells into 1.5 mL EP tubes. The supernatant was removed after centrifugation. The negative control sample was resuspended with a FACS loading buffer (PBS, 2% FBS). For the positive control, 200 μL antibody supernatant with certain concentration was added to resuspend cells and then incubated at room temperature; the cells were then centrifuged at 1500 rpm to remove the supernatant, washed with a FACS loading buffer and centrifuged again. The cells were resuspended followed by addition (200 μL/well) of a FITC labeled goat anti-mouse fluorescent secondary antibody at 1:50 dilution and incubated at room temperature for 30 min in the dark. Supernatant was removed after centrifugation, cells were washed with FACS loading buffer, centrifuged again and resuspended with the loading buffer for analysis.
For orientation: A flow cytometer gives signals particle by particle.

Where no end group is shown, it is not given here.

On to “L5H5 and Linker2-EA5: fusion protein of hAPJ antibody L5H5 and Linker2-EA5 (comprising SEQ ID NO: 123 and SEQ ID NO: 94) (GGGGSGGGGSQRRCMPLHSRVPAP; also: fused to hAPJ antibody L5H5)”, for which the EC50 in assay [1] stood at 2.6 nM; in assay [1] (listed as L5H5 and linker2-EA5), 2.55 nM.

As for “L5H5 and Linker2-EA3: fusion protein of hAPJ antibody L5H5 and Linker2-EA3 (comprising SEQ ID NO: 123 and SEQ ID NO: 109) (GGGGSGGGGSQRRCMPLHSRVPMPF; also: fused to hAPJ antibody L5H5)”, the 50% effective concentration (EC50) was 20.3 nM in assay [1]; 20.3 nM in assay [1] (listed as L5H5 and linker2-EA3).

Turning to “L5H5 and Linker2-EA4: fusion protein of hAPJ antibody L5H5 and Linker2-EA4 (comprising SEQ ID NO: 123 and SEQ ID NO: 116) (GGGGSGGGGSQRRCLSHKGPMPF; also: fused to hAPJ antibody L5H5)”, the concentration for a half-maximal effect (EC50) is 5.4 nM in assay [1]; 5.43 nM in assay [1] (listed as L5H5 and linker2-EA4).

B1: L4H4: APJ antibody with light chain variable domain SEQ ID NO: 62 and heavy chain variable domain SEQ ID NO: 67 (antibody, listed as Mus musculus, V domains shown)
VH: EIKLVESGGGLVKPRGSLKLSCAASGFTFSSYAMSWVRQTPEKRLEWVASISSGGSIYLPDSLKGRFTISRDNAWNILYLQMNSLKSEDTAMYYCTRGRGNSSAWFAYWGQGTLVTVSA
VL: DVLMTQTPLSLPVSLGDQASISCRSDQSLVHRTGNTHLDWYLQKPGQSPKLLIYKVSNRFSGVPDRFSGSGSGTDFTLKISRVEAEDLGVYYCFQASHIPFTFGSGTKLEIKR
With B1, in assay [2], the “specific binding to hAPJ (FACS peak shift versus negative control)” value is listed as “shifted to the right obviously”. The “blocking or activation of APJ receptor by the antibody” value in assay [1] is recorded as “did not block or activate APJ receptor”.

B2: L1H1: APJ antibody with light chain variable domain SEQ ID NO: 59 and heavy chain variable domain SEQ ID NO: 64 (antibody, listed as Mus musculus, V domains shown)
VH: EVQLIETGGGLVQPTGSLQLSCAASGFPFNINAMNWVRQAPGKGLEWVARIRSKSNNYATYYADSVKDRFTISRDDSQSILYLQMNNLKTEDSAMYFCVRGPYLYAMDYWGQGTSVTVSS
VL: DIQMNQSPSSLSASLGDTITITCHASQNIHVWLSWYQQKPGNIPKLLIYKASNLHTGVPSRFSGSGSGTGFTLTISSLQPEDIATYYCQQGHSYPLTFGGGTKLEIKR
B2: the “specific binding to hAPJ (FACS peak shift versus negative control)” value in assay [2] is given as “shifted to the right obviously”. Further, the “blocking or activation of APJ receptor by the antibody” value in assay [1] is “did not block or activate APJ receptor”.

In general, EC50 refers to the concentration needed to bring the measured effect to its halfway point. A low value points to a more potent agent.
